Data set [1] concerns the molecule itself. Briefly: dynamic light scattering; MUC2 D1D2D3 at 0.3 mg/mL in 50 mM MES at varying pH, 150 mM NaCl, 37 °C; large species at pH 5.8 and below.
Data set [2] deals with the molecule itself. Kind of data set: negative stain TEM; MUC2 D1D2D3 at 0.3 mg/mL in 50 mM MES (pH 5.4), 225 mM NaCl, 10 mM CaCl2, 37 °C for 24 h; diluted to 0.03 mg/mL, stained with 2% uranyl acetate.

The text below walks through data of paper PMC9169620, “Helical self-assembly of a mucin segment suggests an evolutionary origin for von Willebrand factor tubules” (Proceedings of the National Academy of Sciences of the …, 2022).

B1: MUC2 D1D2D3 (residues 21 to 1259 followed by a His6 tag) (domain or fragment, human, UniProt Q02817 21-1259, looked up)
chain: SELQTEGRTRNHGHNVCSTWGNFHYKTFDGDVFRFPGLCDYNFASDCRGSYKEFAVHLKRGPGQAEAPAGVESILLTIKDDTIYLTRHLAVLNGAVVSTPHYSPGLLIEKSDAYTKVYSRAGLTLMWNREDALMLELDTKFRNHTCGLCGDYNGLQSYSEFLSDGVLFSPLEFGNMQKINQPDVVCEDPEEEVAPASCSEHRAECERLLTAEAFADCQDLVPLEPYLRACQQDRCRCPGGDTCVCSTVAEFSRQCSHAGGRPGNWRTATLCPKTCPGNLVYLESGSPCMDTCSHLEVSSLCEEHRMDGCFCPEGTVYDDIGDSGCVPVSQCHCRLHGHLYTPGQEITNDCEQCVCNAGRWVCKDLPCPGTCALEGGSHITTFDGKTYTFHGDCYYVLAKGDHNDSYALLGELAPCGSTDKQTCLKTVVLLADKKKNVVVFKSDGSVLLNELQVNLPHVTASFSVFRPSSYHIMVSMAIGVRLQVQLAPVMQLFVTLDQASQGQVQGLCGNFNGLEGDDFKTASGLVEATGAGFANTWKAQSSCHDKLDWLDDPCSLNIESANYAEHWCSLLKKTETPFGRCHSAVDPAEYYKRCKYDTCNCQNNEDCLCAALSSYARACTAKGVMLWGWREHVCNKDVGSCPNSQVFLYNLTTCQQTCRSLSEADSHCLEGFAPVDGCGCPDHTFLDEKGRCVPLAKCSCYHRGLYLEAGDVVVRQEERCVCRDGRLHCRQIRLIGQSCTAPKIHMDCSNLTALATSKPRALSCQTLAAGYYHTECVSGCVCPDGLMDDGRGGCVVEKECPCVHNNDLYSSGAKIKVDCNTCTCKRGRWVCTQAVCHGTCSIYGSGHYITFDGKYYDFDGHCSYVAVQDYCGQNSSLGSFSIITENVPCGTTGVTCSKAIKIFMGRTELKLEDKHRVVIQRDEGHHVAYTTREVGQYLVVESSTGIIVIWDKRTTVFIKLAPSYKGTVCGLCGNFDHRSNNDFTTRDHMVVSSELDFGNSWKEAPTCPDVSTNPEPCSLNPHRRSWAEKQCSILKSSVFSICHSKVDPKPFYEACVHDSCSCDTGGDCECFCSAVASYAQECTKEGACVFWRTPDLCPIFCDYYNPPHECEWHYEPCGNRSFETCRTINGIHSNISVSYLEGCYPRCPKDRPIYEEDLKKCVTADKCGCYVEDTHYPPGASVPTEETCKSCVCTNSSQVVCRPEEGKILNQTQDGAFCYWEICGPNGTVEKHFNICSIT
notes: Mucin-2 (MUC2), human intestinal gel-forming mucin, amino-terminal D1D2D3 region, residues 21 to 1259, without CysD1; The dimers assemble into two-start helical tubules at acidic pH; also called D1D2D3 fragment; MUC2 amino-terminal fragment spanning the D1D2D3 region but lacking CysD1; source: HEK 293F, transient transfection, purified from culture medium (Ni-NTA); not shown: His6, C-terminal, …
For B1, the binding result in data set [1] was “binds”.

B2: MUC2 D1D2D3, with an amino-terminal His6 tag and TEV protease cleavage site and lacking a carboxy-terminal His6 (domain or fragment, human, UniProt Q02817 21-1259, looked up)
chain: SELQTEGRTRNHGHNVCSTWGNFHYKTFDGDVFRFPGLCDYNFASDCRGSYKEFAVHLKRGPGQAEAPAGVESILLTIKDDTIYLTRHLAVLNGAVVSTPHYSPGLLIEKSDAYTKVYSRAGLTLMWNREDALMLELDTKFRNHTCGLCGDYNGLQSYSEFLSDGVLFSPLEFGNMQKINQPDVVCEDPEEEVAPASCSEHRAECERLLTAEAFADCQDLVPLEPYLRACQQDRCRCPGGDTCVCSTVAEFSRQCSHAGGRPGNWRTATLCPKTCPGNLVYLESGSPCMDTCSHLEVSSLCEEHRMDGCFCPEGTVYDDIGDSGCVPVSQCHCRLHGHLYTPGQEITNDCEQCVCNAGRWVCKDLPCPGTCALEGGSHITTFDGKTYTFHGDCYYVLAKGDHNDSYALLGELAPCGSTDKQTCLKTVVLLADKKKNVVVFKSDGSVLLNELQVNLPHVTASFSVFRPSSYHIMVSMAIGVRLQVQLAPVMQLFVTLDQASQGQVQGLCGNFNGLEGDDFKTASGLVEATGAGFANTWKAQSSCHDKLDWLDDPCSLNIESANYAEHWCSLLKKTETPFGRCHSAVDPAEYYKRCKYDTCNCQNNEDCLCAALSSYARACTAKGVMLWGWREHVCNKDVGSCPNSQVFLYNLTTCQQTCRSLSEADSHCLEGFAPVDGCGCPDHTFLDEKGRCVPLAKCSCYHRGLYLEAGDVVVRQEERCVCRDGRLHCRQIRLIGQSCTAPKIHMDCSNLTALATSKPRALSCQTLAAGYYHTECVSGCVCPDGLMDDGRGGCVVEKECPCVHNNDLYSSGAKIKVDCNTCTCKRGRWVCTQAVCHGTCSIYGSGHYITFDGKYYDFDGHCSYVAVQDYCGQNSSLGSFSIITENVPCGTTGVTCSKAIKIFMGRTELKLEDKHRVVIQRDEGHHVAYTTREVGQYLVVESSTGIIVIWDKRTTVFIKLAPSYKGTVCGLCGNFDHRSNNDFTTRDHMVVSSELDFGNSWKEAPTCPDVSTNPEPCSLNPHRRSWAEKQCSILKSSVFSICHSKVDPKPFYEACVHDSCSCDTGGDCECFCSAVASYAQECTKEGACVFWRTPDLCPIFCDYYNPPHECEWHYEPCGNRSFETCRTINGIHSNISVSYLEGCYPRCPKDRPIYEEDLKKCVTADKCGCYVEDTHYPPGASVPTEETCKSCVCTNSSQVVCRPEEGKILNQTQDGAFCYWEICGPNGTVEKHFNICSIT
notes: Mucin-2 (MUC2), human, D1D2D3 region; Made by restriction-free cloning from the plasmid of m1; also called D1D2D3 fragment produced with an amino-terminal His6 tag that was removed proteolytically; source: HEK 293F, transient transfection, purified from culture medium (Ni-NTA); tag removed proteolytically during purification; not shown: His6, N-terminal, cleaved
Take B2: the binding result in data set [2] is “binds”.
